According to patent publication US20180346604A1:

Assays:
[1] = target: Biotin-GCN4 peptide (yeast); assay: SPR (Biacore 3000), Biotin-GCN4 peptide captured on immobilised streptavidin, Fab-scFv injected, 1:1 binding model
[2] = target: Biotin-GCN4 peptide (yeast); assay: SPR, Biacore 3000, 25 C; biotin-GCN4 peptide captured on streptavidin CM5 chip, Fab-scFv as analyte from 30 nM, 1:1 model

koff [1]: 0.00027 s⁻¹
kon [1]: 510000 M⁻¹ s⁻¹
Kd [2]: 0.516 nM
B1: Fab-scFv (anti-GCN4 52SR4 scFv fused to a Fab, generated in-house) (Fab, part only; not given: carrier Fab and its linker, not shown: another chain or arm of the molecule; large carriers; small tags and cut ends)
scFv: DAVVTQESALTSSPGETVTLTCRSSTGAVTTSNYASWVQEKPDHLFTGLIGGTNNRAPGVPARFSGSLIGDKAALTITGAQTEDEAIYFCVLWYSDHWVFGCGTKLTVLGGGGGSGGGGSGGGGSGGGGSDVQLQQSGPGLVAPSQSLSITCTVSGFLLTDYGVNWVRQSPGKCLEWLGVIWGDGITDYNSALKSRLSVTKDNSKSQVFLKMNSLQSGDSARYYCVTGLFDYWGQGTTLTVSSAAAHHHHHHEQKLISEEDL
